Experimental data: patent publication US11155793B2, “Phytase variants YeAPPA having improved gastric protein resistance and acid resistance, and increased catalytic efficiency” (priority 2017, dated 2021)

Columns and labels:
[1] = target: phytase YeAPPA variant YeAPPA-E230G (Glu230 into glycine), SEQ ID NO.5 (Yersinia enterocolitica, UniProt D9D7K9, E230G); assay: Kinetic parameters of phytase variant YeAPPA-E230G on sodium phytate; settings: YeAPPA-E230G vs wild phytase
[2] = target: phytase YeAPPA variant YeAPPA-E230R (Glu230 into arginine), SEQ ID NO.7 (Yersinia enterocolitica, UniProt D9D7K9, E230R); assay: Kinetic parameters of phytase variant YeAPPA-E230R on sodium phytate; settings: YeAPPA-E230R vs wild phytase, in words
[3] = target: wild phytase YeAPPA, SEQ ID NO.1 (Yersinia enterocolitica, UniProt D9D7K9); assay: Kinetic parameters of wild phytase on sodium phytate (double reciprocal method); assay type: biochemical; settings: optimal pH 5, 45° C.
[4] = target: phytase YeAPPA variant YeAPPA-L162G (Leu162 into glycine), SEQ ID NO.3 (Yersinia enterocolitica, UniProt D9D7K9, L162G); assay: Kinetic parameters of phytase variant YeAPPA-L162G on sodium phytate; settings: YeAPPA-L162G vs wild phytase
[5] = target: phytase YeAPPA variant YeAPPA-L162A (Leu162 into alanine), SEQ ID NO.4 (Yersinia enterocolitica, UniProt D9D7K9, L162A); assay: Kinetic parameters of phytase variant YeAPPA-L162A on sodium phytate; settings: YeAPPA-L162A vs wild phytase, in words
[6] = target: phytase YeAPPA variant YeAPPA-E230P (Glu230 into proline), SEQ ID NO.6 (Yersinia enterocolitica, UniProt D9D7K9, E230P); assay: Kinetic parameters of phytase variant YeAPPA-E230P on sodium phytate; settings: YeAPPA-E230P vs wild phytase, in words
Method: According to embodiment of the present invention, the phytase variant YeAPPA-E230P with amino acid sequence as set forth in SEQ ID NO.6 is obtained by mutation at the 230th site of glutamic acid into proline for phytase with amino acid as set forth in SEQ ID NO.1.
The modified gene encoding the phytase variants were inserted into expression vector pET-22b (+), and transformed into E coli.
The effect of pepsin on the activity of the purified mutant phytase was determined by detecting the remained activity after being treated in pH 2 for 2 hours with the different concentrations of pepsin in a mass ratio to phytase ranging from 1/1000 to 1/1. […] After developing, OD is measured at 700 nm to calculate the phytase activity. 1 unit of phytase activity is determined to be the enzyme amount releasing 1 μmol of phosphate for 1 minute. The absolute value of the measured phytase activity may be calculated based on the standard curve of inorganic phosphate in dilution.

[7] = system: O=P(O)(O)O[C@H]1[C@H](OP(=O)(O)O)[C@@H](OP(=O)(O)O)[C@H](OP(=O)(O)O)[C@@H](OP(=O)(O)O)[C@H]1OP(=O)(O)O; assay: purified protein, by the assay type; settings: sodium phytate 0.0625-1.5 mmol/L
[8] = other: YeAPPA-E230G, optimal pH 5, 45° C.
[9] = other: YeAPPA-E230P, optimal pH 5, 50° C.
[10] = other: YeAPPA-E230R, optimal pH 4, 45° C.
[11] = other: YeAPPA-L162A, optimal pH 5, 45° C.
[12] = other: YeAPPA-L162G, optimal pH 5, 45° C.

## O=P(O)(O)O[C@H]1[C@H](OP(=O)(O)O)[C@@H](OP(=O)(O)O)[C@H](OP(=O)(O)O)[C@@H](OP(=O)(O)O)[C@H]1OP(=O)(O)O [sodium phytate]
[1]
  Catalytic efficiency Kcat/km relative to wild phytase: 2.5 times
  Conversion rate Kcat relative to wild phytase: 2.5 times
  Reaction rate Vmax relative to wild phytase: 2.5 times
[2]
  reaction rate, conversion rate and catalytic efficiency compared with wild phytase: almost same as those of the wild phytase
[3]
  Kcat/Km: 26 S^−1 mM^−1
  Vmax: 6.4 U mg^−1
[3]; from theoretical molecular weight
  Kcat: 4.9 S^−1
[4]
  Catalytic efficiency Kcat/km relative to wild phytase: 1.7 times
[5]
  reaction rate, conversion rate and catalytic efficiency compared with wild phytase: almost same as those of the wild phytase
[6]
  reaction rate, conversion rate and catalytic efficiency compared with wild phytase: almost same as those of the wild phytase

## phytase YeAPPA variant YeAPPA-E230G (Glu230 into glycine), SEQ ID NO.5 (Yersinia enterocolitica; E230G)
[7]; [8]
  Km: 190 µM
  Vmax: 16 µmol/min/mg
  kcat: 12 s⁻¹
  kcat/Km: 64000 M⁻¹ s⁻¹

## phytase YeAPPA variant YeAPPA-E230P (Glu230 into proline), SEQ ID NO.6 (Yersinia enterocolitica; E230P)
[7]; [9]
  Km: 190 µM
  Vmax: 6.7 µmol/min/mg
  kcat: 5.1 s⁻¹
  kcat/Km: 26000 M⁻¹ s⁻¹

## phytase YeAPPA variant YeAPPA-E230R (Glu230 into arginine), SEQ ID NO.7 (Yersinia enterocolitica; E230R)
[7]; [10]
  Km: 180 µM
  Vmax: 6.3 µmol/min/mg
  kcat: 4.8 s⁻¹
  kcat/Km: 26000 M⁻¹ s⁻¹

## phytase YeAPPA variant YeAPPA-L162A (Leu162 into alanine), SEQ ID NO.4 (Yersinia enterocolitica; L162A)
[7]; [11]
  Km: 190 µM
  Vmax: 6.5 µmol/min/mg
  kcat: 5 s⁻¹
  kcat/Km: 27000 M⁻¹ s⁻¹

## phytase YeAPPA variant YeAPPA-L162G (Leu162 into glycine), SEQ ID NO.3 (Yersinia enterocolitica; L162G)
[7]; [12]
  Km: 190 µM
  Vmax: 11 µmol/min/mg
  kcat: 8.2 s⁻¹
  kcat/Km: 43000 M⁻¹ s⁻¹
